Experimental findings from publication doi:10.1101/2020.06.18.159822 are described below.

Series [1] addresses HIV-1 BH10 GagΔp6 (HIV-1 BH10). As to the kind of experiment: native MS.
Series [2] concerns the target HIV-1 BH10 GagΔp6 (HIV-1 BH10). As to the kind of experiment: native MS. The source holds these as a separate data set.
Series [3] addresses WT HIV-1 BH10 Gag (HIV-1 BH10). As to the kind of experiment: native MS.
Series [4] deals with WT HIV-1 BH10 Gag (HIV-1 BH10). As to the kind of experiment: native MS. The source holds these as a separate data set.
The target of series [5] is T1, WT Gag (HIV-1 BH10, UniProt P03347 1-512). As to the kind of experiment: native MS.
The target in series [6] is T1, WT Gag. As to the kind of experiment: fluorescence anisotropy salt titration.

Where two headings read alike, the source gives them in different places.

As for HIV-1 BH10 GagΔp6 (domain or fragment), the stoichiometry N in series [1] and in series [2] was 2 each time. In the case of WT HIV-1 BH10 Gag (natural protein), the stoichiometry N in series [3] and in series [4] was 2 in each case.

B1: TARpolyA RNA (structured_RNA)
RNA: GGGUCUCUCUGGUUAGACCAGAUCUGAGCCUGGGAGCUCUCUGGCUAACUAGGGAACCCACUGCUUAAGCCUCAAUAAAGCUUGCCUUGAGUGCUCAAAGUAGUG
In the case of B1, the binding result in the series with WT Gag [5] is listed as “binds”.

B2: Psi RNA-FTSC (structured_RNA)
RNA: GGUCUCUCGACGCAGGACUCGGCUUGCUGGAGACGGCAAGAGGCGAGGGGCGGCGACUGGUGAGUACGCCAAAAAUUUUGACUAGCGGAGGCUAGAAGGAGAGA
Consider B2, for which the Kd (commonly the concentration at which binding is half-saturated) with WT Gag [6] is 77 µM.
